The values below come from patent US20200231654A1 (published 2020).

Where only a bound is given, the exact number is not on record here.

The target of test [1] is MT2-MMP, Catalytic Domain, Human, Recombinant, E. coli (human, UniProt P51511 132-304). The test is described as follows: enzyme inhibition.
For test [2], the target named is biotin-labeled active hMMP-9(cat)_FLAG_Avi (UniProt P14780 107-449, biotin on the Avi tag (biotin ligase BirA)). The test is described as follows: ELISA. On the technique in general: An ELISA detects its analyte on a solid surface through an enzyme-linked reagent.
For test [3], the target named is tissue plasminogen activator human (human, UniProt P00750 36-562). The test can be described thus: substrate peptide degradation inhibition.
The target in test [4] is Protein C from human plasma (human, UniProt P04070 43-461). The test can be described thus: substrate peptide degradation inhibition.
For test [5], the target named is Thrombin from human plasma (human, UniProt P00734 328-622). The test can be described thus: substrate peptide degradation inhibition.
The target in test [6] is α-Chymotrypsin from human pancreas (human, UniProt P17538 19-263). The test can be described thus: substrate peptide degradation inhibition.
Test [7] has as its target Trypsin from Human Pancreas (human, UniProt P07477 24-247). The test can be described thus: substrate peptide degradation inhibition.
Test [8] concerns the target T1, Neutrophil elastase (human) (human, UniProt P08246 30-247).
T1 chain: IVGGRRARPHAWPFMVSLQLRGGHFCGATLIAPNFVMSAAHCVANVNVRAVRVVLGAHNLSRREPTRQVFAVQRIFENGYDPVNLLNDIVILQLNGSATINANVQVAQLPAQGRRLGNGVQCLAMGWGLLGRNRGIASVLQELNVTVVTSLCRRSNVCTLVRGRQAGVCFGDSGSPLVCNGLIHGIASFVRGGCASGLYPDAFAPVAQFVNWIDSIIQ
The test can be described thus: substrate peptide degradation inhibition.

The target of test [9] is recombinant human plasma kallikrein/KLKB1 Protein (human, UniProt P03952 20-638). The test is described as follows: substrate peptide degradation inhibition.
Test [10] deals with T2, Recombinant Human Matriptase/ST14 Catalytic Domain (human, UniProt Q9Y5Y6 596-855).
T2 chain: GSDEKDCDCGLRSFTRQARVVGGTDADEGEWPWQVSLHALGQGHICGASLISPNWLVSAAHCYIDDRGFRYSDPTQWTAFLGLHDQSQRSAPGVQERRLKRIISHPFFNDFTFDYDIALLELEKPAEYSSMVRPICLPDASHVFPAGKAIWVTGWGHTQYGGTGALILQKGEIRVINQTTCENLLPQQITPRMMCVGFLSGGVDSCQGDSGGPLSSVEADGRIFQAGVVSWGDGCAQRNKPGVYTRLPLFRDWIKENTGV
The test is described as follows: substrate peptide degradation inhibition.

Test [11] concerns the target T3, Plasmin from human plasma (human, UniProt P00747 97-810).
T3 chain: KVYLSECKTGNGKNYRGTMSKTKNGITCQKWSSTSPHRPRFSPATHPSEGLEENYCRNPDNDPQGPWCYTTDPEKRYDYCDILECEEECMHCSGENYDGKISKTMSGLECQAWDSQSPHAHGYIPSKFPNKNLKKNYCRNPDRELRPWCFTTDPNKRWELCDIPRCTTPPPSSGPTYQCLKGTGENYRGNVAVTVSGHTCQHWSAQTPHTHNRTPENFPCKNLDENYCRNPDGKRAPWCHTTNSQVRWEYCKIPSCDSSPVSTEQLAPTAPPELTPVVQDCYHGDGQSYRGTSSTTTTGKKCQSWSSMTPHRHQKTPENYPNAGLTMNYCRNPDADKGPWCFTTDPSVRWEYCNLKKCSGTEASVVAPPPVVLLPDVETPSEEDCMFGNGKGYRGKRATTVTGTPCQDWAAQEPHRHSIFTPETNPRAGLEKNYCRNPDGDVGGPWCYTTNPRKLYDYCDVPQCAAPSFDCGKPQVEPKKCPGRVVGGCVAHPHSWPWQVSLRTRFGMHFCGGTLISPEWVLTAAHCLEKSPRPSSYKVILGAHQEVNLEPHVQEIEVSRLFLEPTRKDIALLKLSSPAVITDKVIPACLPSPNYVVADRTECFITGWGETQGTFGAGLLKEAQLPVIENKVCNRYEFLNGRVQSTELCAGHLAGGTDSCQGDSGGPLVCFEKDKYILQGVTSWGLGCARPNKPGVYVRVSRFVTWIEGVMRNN
The test is described as follows: substrate peptide degradation inhibition.

Test [12] has as its target T4, Chymase human recombinant expressed in Pichia pastoris (human, UniProt P23946 22-247).
T4 chain: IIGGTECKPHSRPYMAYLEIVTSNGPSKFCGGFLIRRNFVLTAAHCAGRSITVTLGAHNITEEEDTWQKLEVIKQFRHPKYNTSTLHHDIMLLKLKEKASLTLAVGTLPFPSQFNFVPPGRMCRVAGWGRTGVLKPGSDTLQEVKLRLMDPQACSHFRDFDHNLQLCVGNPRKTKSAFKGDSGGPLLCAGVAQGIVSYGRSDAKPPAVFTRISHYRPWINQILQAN
The test is described as follows: substrate peptide degradation inhibition.

A further test has as its target Tryptase from human lung (human, UniProt Q15661 31-275). The test is described as follows: substrate peptide degradation inhibition.
In test [13] the target is urokinase from human urine (human, UniProt P00749 21-431). The test can be described thus: substrate peptide degradation inhibition.
The target of the next test is active hMMP-9(cat)_His6 (UniProt P14780 107-449). The test can be described thus: enzyme inhibition; substrate gelatin.
The target in test [14] is active mMMP-9(cat)_FLAG_Avi (UniProt P41245 108-450). The test is described as follows: enzyme inhibition; substrate peptide.
Sequence of active mMMP-9(cat)_FLAG_Avi (P41245 other isoform, or with tags, fused parts or gaps): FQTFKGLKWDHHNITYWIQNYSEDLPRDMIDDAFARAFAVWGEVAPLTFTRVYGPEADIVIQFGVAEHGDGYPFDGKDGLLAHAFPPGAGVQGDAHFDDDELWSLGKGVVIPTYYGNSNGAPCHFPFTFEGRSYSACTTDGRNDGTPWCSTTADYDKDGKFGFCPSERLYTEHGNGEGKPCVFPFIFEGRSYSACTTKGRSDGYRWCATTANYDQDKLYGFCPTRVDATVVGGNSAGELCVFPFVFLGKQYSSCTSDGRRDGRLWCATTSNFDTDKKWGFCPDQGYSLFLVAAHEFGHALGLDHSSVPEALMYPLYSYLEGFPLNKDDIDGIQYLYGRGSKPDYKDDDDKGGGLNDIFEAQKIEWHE

Sequence of MT2-MMP, Catalytic Domain, Human, Recombinant, E. coli (P51511 132-304): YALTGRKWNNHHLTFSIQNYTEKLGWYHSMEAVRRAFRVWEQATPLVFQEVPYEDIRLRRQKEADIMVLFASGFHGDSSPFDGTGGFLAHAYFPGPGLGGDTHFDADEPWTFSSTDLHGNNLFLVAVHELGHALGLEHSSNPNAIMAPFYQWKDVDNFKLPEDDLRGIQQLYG
Sequence of recombinant human plasma kallikrein/KLKB1 Protein (P03952 20-638): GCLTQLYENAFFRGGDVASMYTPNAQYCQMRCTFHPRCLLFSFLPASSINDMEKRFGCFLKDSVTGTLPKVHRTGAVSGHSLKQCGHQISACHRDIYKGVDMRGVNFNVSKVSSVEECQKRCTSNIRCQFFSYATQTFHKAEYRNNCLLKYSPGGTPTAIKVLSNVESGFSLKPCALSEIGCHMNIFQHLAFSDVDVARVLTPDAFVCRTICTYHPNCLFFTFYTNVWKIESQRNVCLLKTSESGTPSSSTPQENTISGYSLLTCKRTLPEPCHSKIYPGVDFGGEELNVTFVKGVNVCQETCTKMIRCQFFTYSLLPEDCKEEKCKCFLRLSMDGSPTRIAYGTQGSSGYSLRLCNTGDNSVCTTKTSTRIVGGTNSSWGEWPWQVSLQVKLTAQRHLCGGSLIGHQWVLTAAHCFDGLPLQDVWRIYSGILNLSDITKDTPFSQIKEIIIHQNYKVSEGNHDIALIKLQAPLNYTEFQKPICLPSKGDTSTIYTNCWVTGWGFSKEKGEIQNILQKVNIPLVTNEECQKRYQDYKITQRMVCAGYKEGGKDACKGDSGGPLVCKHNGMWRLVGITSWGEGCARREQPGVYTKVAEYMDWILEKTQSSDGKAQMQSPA
Sequence of α-Chymotrypsin from human pancreas (P17538 19-263): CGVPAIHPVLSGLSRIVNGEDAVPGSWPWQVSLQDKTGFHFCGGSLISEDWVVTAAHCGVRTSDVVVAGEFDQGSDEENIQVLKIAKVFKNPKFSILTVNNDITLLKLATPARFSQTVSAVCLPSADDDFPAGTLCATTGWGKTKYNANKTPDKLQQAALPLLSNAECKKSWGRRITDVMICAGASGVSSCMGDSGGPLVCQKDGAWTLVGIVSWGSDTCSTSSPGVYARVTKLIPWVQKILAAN
Sequence of Protein C from human plasma (P04070 43-461): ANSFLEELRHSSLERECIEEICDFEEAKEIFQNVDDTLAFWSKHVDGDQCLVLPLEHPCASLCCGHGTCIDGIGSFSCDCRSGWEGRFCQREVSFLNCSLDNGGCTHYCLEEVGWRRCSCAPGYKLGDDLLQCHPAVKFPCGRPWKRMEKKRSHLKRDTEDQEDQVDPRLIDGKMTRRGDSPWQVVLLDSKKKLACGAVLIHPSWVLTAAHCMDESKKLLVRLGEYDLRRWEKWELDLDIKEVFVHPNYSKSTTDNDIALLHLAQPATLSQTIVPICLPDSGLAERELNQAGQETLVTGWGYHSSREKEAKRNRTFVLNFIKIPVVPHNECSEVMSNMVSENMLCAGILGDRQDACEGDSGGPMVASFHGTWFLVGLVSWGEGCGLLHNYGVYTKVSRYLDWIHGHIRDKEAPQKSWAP
Sequence of active hMMP-9(cat)_His6 (P14780 107-449): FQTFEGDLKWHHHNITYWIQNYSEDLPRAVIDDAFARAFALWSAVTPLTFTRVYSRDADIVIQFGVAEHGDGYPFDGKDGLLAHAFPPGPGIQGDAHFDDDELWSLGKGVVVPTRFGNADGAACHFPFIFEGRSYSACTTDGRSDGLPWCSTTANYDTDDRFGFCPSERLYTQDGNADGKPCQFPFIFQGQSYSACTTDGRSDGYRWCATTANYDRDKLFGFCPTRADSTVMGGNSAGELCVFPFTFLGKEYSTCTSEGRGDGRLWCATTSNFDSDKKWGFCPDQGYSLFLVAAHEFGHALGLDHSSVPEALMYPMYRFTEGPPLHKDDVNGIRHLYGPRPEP
Sequence of biotin-labeled active hMMP-9(cat)_FLAG_Avi (P14780 other isoform, or with tags, fused parts or gaps): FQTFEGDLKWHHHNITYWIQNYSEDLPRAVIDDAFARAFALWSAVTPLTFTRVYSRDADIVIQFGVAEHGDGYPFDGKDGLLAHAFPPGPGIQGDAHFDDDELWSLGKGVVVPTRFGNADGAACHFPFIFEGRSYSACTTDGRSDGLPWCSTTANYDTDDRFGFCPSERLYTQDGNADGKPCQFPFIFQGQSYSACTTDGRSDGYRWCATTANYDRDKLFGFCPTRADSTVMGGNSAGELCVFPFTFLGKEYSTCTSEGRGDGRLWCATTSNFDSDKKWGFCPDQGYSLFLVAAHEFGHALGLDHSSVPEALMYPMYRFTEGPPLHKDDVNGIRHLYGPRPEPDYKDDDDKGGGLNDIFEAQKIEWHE
Sequence of Tryptase from human lung (Q15661 31-275): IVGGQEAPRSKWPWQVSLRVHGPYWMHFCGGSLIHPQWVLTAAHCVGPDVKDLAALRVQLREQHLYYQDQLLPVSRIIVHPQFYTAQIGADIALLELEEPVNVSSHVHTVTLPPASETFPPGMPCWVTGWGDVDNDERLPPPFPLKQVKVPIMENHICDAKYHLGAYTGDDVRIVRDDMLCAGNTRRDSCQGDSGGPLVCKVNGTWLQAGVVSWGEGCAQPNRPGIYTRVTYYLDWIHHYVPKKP
Sequence of tissue plasminogen activator human (P00750 36-562): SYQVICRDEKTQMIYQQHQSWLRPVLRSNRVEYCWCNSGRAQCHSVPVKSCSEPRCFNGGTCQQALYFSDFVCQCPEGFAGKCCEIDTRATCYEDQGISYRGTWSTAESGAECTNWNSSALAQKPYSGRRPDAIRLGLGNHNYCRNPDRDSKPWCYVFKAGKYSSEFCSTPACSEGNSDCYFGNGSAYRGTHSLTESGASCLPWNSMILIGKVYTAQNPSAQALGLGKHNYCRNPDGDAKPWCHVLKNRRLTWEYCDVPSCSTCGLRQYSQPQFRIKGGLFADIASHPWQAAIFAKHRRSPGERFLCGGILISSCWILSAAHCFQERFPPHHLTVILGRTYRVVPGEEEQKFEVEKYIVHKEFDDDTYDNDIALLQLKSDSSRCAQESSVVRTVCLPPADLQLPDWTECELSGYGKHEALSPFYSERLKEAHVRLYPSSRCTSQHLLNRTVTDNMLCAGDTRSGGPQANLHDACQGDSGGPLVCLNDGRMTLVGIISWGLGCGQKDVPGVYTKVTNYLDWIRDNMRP

B1: active MMP-9-binding peptide M91004 (designed binder)
chain: GSGMKETAAAKFERQHMDSPDLGTDDDDKAMADIGSANSDPQFGLFSKYRTPNCRQRKGPSCQMAFQPVCGSDMSTYANECTLCMKIREGGHNIKIIRNGPCGASAAA
Broadly, the IC50 is the concentration needed to halve the response being measured. The EC50 is the concentration at which the effect is half-maximal. A lower EC50 goes with an effect from little substance. For the molecule B1, the IC50 in test [1], in test [3], in test [4], in test [5], in test [6] and in [7] was > 1000 nM throughout. For the same molecule, the concentration for half-maximal inhibition (IC50) (in test [8]; in test [9]; in [10]; in test [11]; in test [12]; with Tryptase from human lung) was > 1000 nM in each case. Besides, the results for the 50% inhibitory concentration (IC50) (in test [13]; with active hMMP-9(cat)_His6; in test [14]) were > 1000 nM, 7.6 nM and 7.1 nM, respectively. Further, in test [2], it took 42 nM to reach a half-maximal effect (EC50).

B2: active MMP-9-binding peptide M91012 (designed binder)
chain: GSGMKETAAAKFERQHMDSPDLGTDDDDKAMADIGSANSDPQFGLFSKYRTPNCRVRGGPSCQMSFNPVCGSDMSTYANECTLCMKIREGGHNIKIIRNGPCGASAAA
Consider B2, for which the IC50 in test [1], in [3], in [4], in test [5], in test [6] and in test [7] was > 1000 nM each time. The IC50 (in test [8]; in test [9]; in test [10]; in test [11]; in test [12]; with Tryptase from human lung) was > 1000 nM in each case. The results for the half-maximal inhibitory concentration (IC50) (in test [13]; in the test with active hMMP-9(cat)_His6; in test [14]) were > 1000 nM, 8.6 nM and 7.8 nM, respectively. Also, the concentration giving a half-maximal response (EC50) in [2] was 46 nM.

B3: active MMP-9-binding peptide M91010 (designed binder)
chain: GSGMKETAAAKFERQHMDSPDLGTDDDDKAMADIGSANSDPQFGLFSKYRTPNCRKVGEPACQMSFNPVCGSDMSTYANECTLCMKIREGGHNIKIIRNGPCGASAAA
B3: the IC50 in test [1], in test [3], in test [4], in [5], in test [6] and in [7] was > 1000 nM in each case. The IC50 (in test [8]; in [9]; in [10]; in [11]; in test [12]; in the test with Tryptase from human lung) was > 1000 nM in each case. Moreover, the concentration for half-maximal inhibition (IC50) was > 1000 nM in test [13], 5.8 nM with active hMMP-9(cat)_His6 and 5 nM in test [14]. For the same molecule, the 50% effective concentration (EC50) in test [2] worked out at 48 nM.

B4: active MMP-9-binding peptide M91011 (designed binder)
chain: GSGMKETAAAKFERQHMDSPDLGTDDDDKAMADIGSANSDPQFGLFSKYRTPNCMMYKYAQCSHKSQPVCGSDMSTYANECTLCMKIREGGHNIKIIRNGPCGASAAA
Regarding B4, the IC50 in test [1], in test [3], in test [4], in [5], in test [6] and in [7] was > 1000 nM each time. Moreover, the IC50 (in test [8]; in test [9]; in test [10]; in test [11]; in test [12]; with Tryptase from human lung) was > 1000 nM each time. Moreover, the 50% inhibitory concentration (IC50) in test [13] was > 1000 nM; in test [14], 21 nM. Besides, it took 16 nM to reach a half-maximal effect in test [2] (EC50).

B5: active MMP-9-binding peptide M91002 (designed binder)
chain: GSGMKETAAAKFERQHMDSPDLGTDDDDKAMADIGSANSDPQFGLFSKYRTPNCRTGRGPACQMGFQPVCGSDMSTYANECTLCMKIREGGHNIKIIRNGPCGASAAA
For B5, the IC50 in [1], in test [3], in test [4], in [5], in [6] and in test [7] was > 1000 nM in each case. In addition, the concentration for half-maximal inhibition (IC50) (in test [8]; in test [9]; in test [10]; in test [11]; in test [12]; with Tryptase from human lung) was > 1000 nM throughout. Further, the IC50 is > 1000 nM in test [13], 8.5 nM with active hMMP-9(cat)_His6 and 5.1 nM in [14]. In test [2], this molecule yielded an EC50 of 47 nM.

B6: active MMP-9-binding peptide M91001 (designed binder)
chain: GSGMKETAAAKFERQHMDSPDLGTDDDDKAMADIGSANSDPQFGLFSKYRTPNCQRGIGPSCQMSYKPVCGSDMSTYANECTLCMKIREGGHNIKIIRNGPCGASAAA
Take B6: the half-inhibitory concentration (IC50) in test [1], in test [3], in [4], in test [5], in test [6] and in [7] was > 1000 nM throughout. The IC50 (in test [8]; in test [9]; in test [10]; in test [11]; in test [12]; with Tryptase from human lung) was > 1000 nM each time. The concentration for half-maximal inhibition (IC50) in test [13] was > 1000 nM; with active hMMP-9(cat)_His6, 8.3 nM; in test [14] it was 4.1 nM. Further, the EC50 in [2] was determined as 22 nM.

B7: active MMP-9-binding peptide M91014 (designed binder)
chain: GSGMKETAAAKFERQHMDSPDLGTDDDDKAMADIGSANSDPQFGLFSKYRTPNCVMYKYAQCSHKYKPVCGSDMSTYANECTLCMKIREGGHNIKIIRNGPCGASAAA
Turning to B7, the concentration for half-maximal inhibition (IC50) in [1], in test [3], in [4], in [5], in test [6] and in test [7] was > 1000 nM throughout. Besides, the IC50 (in [8]; in test [9]; in test [10]; in test [11]; in test [12]; with Tryptase from human lung) was > 1000 nM in each case. In addition, the half-inhibitory concentration (IC50) in test [13] was > 1000 nM; with active hMMP-9(cat)_His6, 3 nM; in test [14], 9.2 nM. Also, the 50% effective concentration (EC50) in [2] amounted to 8 nM.
